Data on four molecules can be found in patent US20160376339A1 (CURACLE, published 2016).

In experiment [1] the target is T1, Flag-PDK1 (UniProt O15530 1-556, limits assumed).
T1 construct: Expressed in HEK293T cells for co-immunoprecipitation; not shown: Flag tag
T1 sequence (looked up): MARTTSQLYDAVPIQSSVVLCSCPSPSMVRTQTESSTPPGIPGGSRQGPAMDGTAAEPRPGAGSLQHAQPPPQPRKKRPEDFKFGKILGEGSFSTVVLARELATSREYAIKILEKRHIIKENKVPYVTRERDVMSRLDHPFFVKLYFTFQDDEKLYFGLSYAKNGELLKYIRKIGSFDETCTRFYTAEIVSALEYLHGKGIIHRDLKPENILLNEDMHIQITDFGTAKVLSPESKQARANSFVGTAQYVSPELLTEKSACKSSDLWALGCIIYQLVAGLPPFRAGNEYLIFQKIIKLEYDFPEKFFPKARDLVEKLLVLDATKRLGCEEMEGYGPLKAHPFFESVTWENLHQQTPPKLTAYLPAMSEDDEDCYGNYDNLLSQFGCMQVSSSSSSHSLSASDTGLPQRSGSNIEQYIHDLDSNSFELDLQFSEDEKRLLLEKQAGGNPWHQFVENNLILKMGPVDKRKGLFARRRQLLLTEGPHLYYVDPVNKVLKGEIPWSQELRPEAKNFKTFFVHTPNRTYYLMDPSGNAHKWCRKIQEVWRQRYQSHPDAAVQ
The experiment in a line: co-immunoprecipitation of GFP-tagged deletion mutants with Flag-PDK1.

In experiment [2] the target is T2, His-tagged PH domain of PDK1 (purified) (UniProt O15530 409-556, limits assumed).
T2 construct: domain: PH domain; Expressed in E. coli BL21 and purified on Ni2+-NTA-agarose; also called His-PH; His-tagged PDK1PH; not shown: His tag from vector pET32a
T2 sequence (looked up): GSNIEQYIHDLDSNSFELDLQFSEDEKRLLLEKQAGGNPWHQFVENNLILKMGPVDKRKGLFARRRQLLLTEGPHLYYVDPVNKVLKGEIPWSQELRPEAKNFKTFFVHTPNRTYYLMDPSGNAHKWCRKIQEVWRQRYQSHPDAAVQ
The experiment in a line: Far-western analysis and GST pull-down with purified proteins.

The target of experiment [3] is T1, Flag-PDK1. The experiment can be described thus: co-immunoprecipitation of GFP-tagged truncated AMIGO2 with Flag-PDK1.
Text: The immunoprecipitated proteins were obtained by using protein A-agarose beads (Upstate Biotechnology), and detected by SDS-PAGE.

Where no end group is shown, it is not given here.

B1: AMIGO2^ΔCD (GFP-tagged AMIGO2 with residues 420-522 deleted) (receptor)
chain: VCPTACICATDIVSCTNKNLSKVPGNLFRLIKRLDLSYNRIGLLDSEWIPVSFAKLNTLILRHNNITSISTGSFSTTPNLKCLDLSSNKLKTVKNAVFQELKVLEVLLLYNNHISYLDPSAFGGLSQLQKLYLSGNFLTQFPMDLYVGRFKLAELMFLDVSYNRIPSMPMHHINLVPGKQLRGIYLHGNPFVCDCSLYSLLVFWYRRHFSSVMDFKNDYTCRLWSDSRHSRQVLLLQDSFMNCSDSIINGSFRALGFIHEAQVGERLMVHCDSKTGNANTDFIWVGPDNRLLEPDKEMENFYVFHNGSLVIESPRFEDAGVYSCIAMNKQRLLNETVDVTINVSNFTVSRSHAHEAFNTAFTTLAACVASIVLVLLYLYL
notes: The range 1-419 is derived from it; also called AMIGO2 without cytosolic Domain; not shown: EGFP tag
Consider B1, for which the binding result in experiment [1] was “no binding”.

B2: GST-tagged AMIGO2 420-454 (other)
chain: TPCPCKCKTKRQKNMLHQSNAHSSILSPGPASDAS
modifications: cysteine pairing not given here; also: GST tag of pGEX 4T1 (sequence not given here)
notes: Same forward primer and linker as GST-CD; not shown: glutathione S-transferase tag of vector pGEX 4T1
As to B2, the binding result in experiment [2] is “no binding”.

B3: GST-tagged AMIGO2 420-464 (other)
chain: TPCPCKCKTKRQKNMLHQSNAHSSILSPGPASDASADERKAGAGK
modifications: cysteine pairing not given here; also: GST tag of pGEX 4T1 (sequence not given here)
notes: as for B2
Regarding B3, the binding result in experiment [2] is given as “no binding”.

B4: AMIGO2^457aa (GFP-tagged AMIGO2 truncated after residue 457) (receptor)
chain: VCPTACICATDIVSCTNKNLSKVPGNLFRLIKRLDLSYNRIGLLDSEWIPVSFAKLNTLILRHNNITSISTGSFSTTPNLKCLDLSSNKLKTVKNAVFQELKVLEVLLLYNNHISYLDPSAFGGLSQLQKLYLSGNFLTQFPMDLYVGRFKLAELMFLDVSYNRIPSMPMHHINLVPGKQLRGIYLHGNPFVCDCSLYSLLVFWYRRHFSSVMDFKNDYTCRLWSDSRHSRQVLLLQDSFMNCSDSIINGSFRALGFIHEAQVGERLMVHCDSKTGNANTDFIWVGPDNRLLEPDKEMENFYVFHNGSLVIESPRFEDAGVYSCIAMNKQRLLNETVDVTINVSNFTVSRSHAHEAFNTAFTTLAACVASIVLVLLYLYLTPCPCKCKTKRQKNMLHQSNAHSSILSPGPASDASADE
notes: The range 1-457 is read from the name and from the reverse primer with its stop codon; also called 457aa construct; not shown: EGFP tag
B4: the binding result in experiment [3] was “no binding”.
